We go through 50 molecules from US20230357447A1 (JANUX THERAPEUTICS, published 2023).

Assay [1] concerns the target T1, Anti-CD28 scFv (VH-linker 1-VL) (biotinylated (site not stated)).
T1 construct: biotinylated and captured on neutravidin coated plates in the phage ELISA
In words: phage binding ELISA on captured anti-CD28 scFv, wells pre-incubated with soluble CD28 (competitor).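 Note: crude clonal phage supernatants added without washing, bound phage detected by HRP-conjugated anti-M13 antibody, control wells held blocking buffer alone instead of CD28.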

The target of assay [2] is T1, Anti-CD28 scFv (VH-linker 1-VL). Description: phage binding ELISA on captured biotinylated anti-CD28 scFv.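 Note: crude clonal phage supernatants applied to the wells, bound phage read out with an HRP-conjugated anti-M13 antibody.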
Description: Clonal phage were harvested as crude supernatants and screened via standard enzyme linked immunosorbent assays (ELISAs). […] Prior to the addition of clonal phage, wells were incubated with blocking buffer and CD28 soluble protein or blocking buffer alone. Without washing or aspirating, clonal phage supernatants were then added to the wells and incubated for a short time. Wells were then washed followed by detection of bound phage using a horse radish peroxidase conjugated anti-M13 antibody.
Assay [3] has as its target T2, anti-CD28 scFv (VH-linker 1-VL) (biotinylated (site not stated)).
T2 construct: Captured as biotinylated scFv on neutravidin coated plates in the phage ELISA
Description: phage ELISA; scFv wells pre-incubated with soluble CD28 (competitor).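 Note: crude clonal phage supernatants added to wells pretreated with soluble CD28 in blocking buffer, bound phage read via HRP-linked anti-M13 antibody, reference wells got blocking buffer only.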 For orientation: An ELISA detects its analyte on a solid surface through an enzyme-linked reagent.

T1 sequence (scFv, as listed by the source): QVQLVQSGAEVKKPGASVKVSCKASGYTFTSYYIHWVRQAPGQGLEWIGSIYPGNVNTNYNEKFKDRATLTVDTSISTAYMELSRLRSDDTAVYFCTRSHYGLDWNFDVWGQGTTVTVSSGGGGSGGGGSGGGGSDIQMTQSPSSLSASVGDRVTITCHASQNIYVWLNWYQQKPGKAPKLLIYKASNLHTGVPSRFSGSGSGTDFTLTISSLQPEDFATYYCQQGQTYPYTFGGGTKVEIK
T2 sequence (scFv, as listed by the source): as above

B1: Phage-342 (peptide)
peptide: MDWCPRNLWHECFA
For the molecule B1, the “CD28 scFv signal in presence of CD28” value in assay [1] came to 0.175. For the same molecule, the “CD28 scFv signal” value in assay [2] was 1.97.

B2: Phage-351 (peptide)
peptide: MDWCPMNLWHECFA
Regarding B2, the “CD28 scFv signal in presence of CD28” value in assay [1] amounted to 0.16. Besides, the “CD28 scFv signal” value in assay [2] was found to be 1.74.

B3: Phage-359 (peptide)
peptide: MDWCPRPLWHECFA
Turning to B3, the “CD28 scFv signal in presence of CD28” value in assay [1] was 0.138. The “CD28 scFv signal” value in assay [2] is 1.44.

B4: Phage-340 (peptide)
peptide: MSWCPIDLWSECFA
Take B4: the “CD28 scFv signal in presence of CD28” value in assay [1] turned out to be 0.148. Moreover, the “CD28 scFv signal” value in assay [2] turned out to be 1.99.

B5: Phage-265 clonal phage peptide (peptide)
peptide: MDWCPRFMWDLCFA
notes: on phage (pIII fusion)
With B5, the “CD28 scFv signal in presence of CD28” value in assay [3] was 0.725.

B6: Phage-392 (peptide)
peptide: LHWCPTSMWTYCYY
In the case of B6, the “CD28 scFv signal in presence of CD28” value in assay [1] turned out to be 2.46.

B7: Phage-343 (peptide)
peptide: MDWCPRDLWTQCFF
In the case of B7, in assay [1], the “CD28 scFv signal in presence of CD28” value stood at 0.119. Further, the “CD28 scFv signal” value in assay [2] stood at 1.93.

B8: Phage-353 (peptide)
peptide: IDWCPLHLWHECYH
On to B8, for which the “CD28 scFv signal in presence of CD28” value in assay [1] is 0.182. Also, the “CD28 scFv signal” value in assay [2] turned out to be 1.69.

B9: Phage-358 (peptide)
peptide: MDWCPPHLWHECFF
For the molecule B9, in assay [2], the “CD28 scFv signal” value was 1.45.

B10: Phage-336 (peptide)
peptide: MDWCPRDLWNWCFN
For B10, the “CD28 scFv signal in presence of CD28” value in assay [1] came to 0.39. Moreover, in assay [2], the “CD28 scFv signal” value was 2.03.

B11: Phage-337 (peptide)
peptide: MDWCPKPLWHVCFA
Take B11: in assay [1], the “CD28 scFv signal in presence of CD28” value was 0.152. In assay [2], the “CD28 scFv signal” value was 2.02.

B12: Phage-332 (peptide)
peptide: IDWCPRALWDACLA
Consider B12, for which, in assay [1], the “CD28 scFv signal in presence of CD28” value was found to be 0.164. In addition, the “CD28 scFv signal” value in assay [2] was determined as 2.1.

B13: Phage-344 (peptide)
peptide: MDWCPRHLWVHCFS
As to B13, in assay [1], the “CD28 scFv signal in presence of CD28” value is 0.173. In addition, in assay [2], the “CD28 scFv signal” value was found to be 1.91.

B14: Phage-346 (peptide)
peptide: MDWCPRHLWHACFS
With B14, the “CD28 scFv signal in presence of CD28” value in assay [1] amounted to 0.167. For the same molecule, the “CD28 scFv signal” value in assay [2] stood at 1.83.

B15: Phage-339 (peptide)
peptide: MDWCPRTLWDQCFF
Take B15: in assay [1], the “CD28 scFv signal in presence of CD28” value amounted to 0.314. Besides, in assay [2], the “CD28 scFv signal” value was determined as 1.99.

B16: Phage-419 (peptide)
peptide: VDWCPAHMWNECYN
As to B16, the “CD28 scFv signal” value in assay [2] is 0.664.

B17: Phage-341 (peptide)
peptide: MDWCPRHLWDECFN
As to B17, the “CD28 scFv signal in presence of CD28” value in assay [1] turned out to be 0.268. Besides, the “CD28 scFv signal” value in assay [2] came out at 1.98.

B18: Phage-387 (peptide)
peptide: MDWCPRHLWLECFN
With B18, in assay [1], the “CD28 scFv signal in presence of CD28” value is 0.074. Also, the “CD28 scFv signal” value in assay [2] came out at 0.066.

B19: Phage-354 (peptide)
peptide: MDWCPRYLWLECFN
For B19, the “CD28 scFv signal in presence of CD28” value in assay [1] turned out to be 0.368. The “CD28 scFv signal” value in assay [2] was found to be 1.69.

B20: Phage-322 (peptide)
peptide: MDWCPRHLWIECFN
In the case of B20, the “CD28 scFv signal in presence of CD28” value in assay [1] amounted to 0.376. The “CD28 scFv signal” value in assay [2] amounted to 2.21.

B21: Phage-331 (peptide)
peptide: MDWCPRHLWDECFY
With B21, the “CD28 scFv signal in presence of CD28” value in assay [1] amounted to 0.146. Moreover, the “CD28 scFv signal” value in assay [2] is 2.13.

B22: Phage-330 (peptide)
peptide: MDWCPRFLWDVCFN
For B22, the “CD28 scFv signal in presence of CD28” value in assay [1] is 0.309. Further, the “CD28 scFv signal” value in assay [2] came to 2.14.

B23: Phage-335 (peptide)
peptide: MDWCPRFLWDYCFA
For B23, the “CD28 scFv signal in presence of CD28” value in assay [1] amounted to 0.207. The “CD28 scFv signal” value in assay [2] came to 2.03.

B24: Phage-389 (peptide)
peptide: MDWCPSDMWANCFF
On to B24, for which, in assay [1], the “CD28 scFv signal in presence of CD28” value was 0.316.

B25: Phage-348 (peptide)
peptide: MAWCPWYLWDECFN
Consider B25, for which the “CD28 scFv signal in presence of CD28” value in assay [1] is 0.267. In addition, in assay [2], the “CD28 scFv signal” value worked out at 1.81.

B26: Phage-345 (peptide)
peptide: MDFCPRFLWHECFN
With B26, the “CD28 scFv signal in presence of CD28” value in assay [1] amounted to 0.225. In assay [2], the “CD28 scFv signal” value worked out at 1.91.

B27: Phage-360 (peptide)
peptide: MDWCPMFLWHECFS
In the case of B27, the “CD28 scFv signal in presence of CD28” value in assay [1] came out at 0.193. Besides, in assay [2], the “CD28 scFv signal” value came out at 1.44.

B28: Phage-236 clonal phage peptide (peptide)
peptide: MDWCPRDLWNLCFF
notes: on phage (pIII fusion)
As for B28, the “CD28 scFv signal in presence of CD28” value in assay [3] amounted to 0.436.

B29: Phage-297 clonal phage peptide (peptide)
peptide: MDWCPRHLWTECFS
notes: on phage (pIII fusion)
For B29, the “CD28 scFv signal in presence of CD28” value in assay [3] is 0.243.

B30: Phage-356 (peptide)
peptide: MDWCPMYLWDECFF
For B30, the “CD28 scFv signal in presence of CD28” value in assay [1] was found to be 0.178. In assay [2], the “CD28 scFv signal” value came to 1.65.

B31: Phage-289 clonal phage peptide (peptide)
peptide: MDWCPRYLWNVCFA
notes: on phage (pIII fusion)
B31: the “CD28 scFv signal in presence of CD28” value in assay [3] is 0.28.

B32: Phage-347 (peptide)
peptide: MDWCPLFLWDQCFN
Regarding B32, in assay [1], the “CD28 scFv signal in presence of CD28” value was 0.264. Moreover, the “CD28 scFv signal” value in assay [2] was determined as 1.82.

B33: Phage-326 (peptide)
peptide: MFWCPITLWNECFN
In the case of B33, the “CD28 scFv signal in presence of CD28” value in assay [1] stood at 0.143. For the same molecule, in assay [2], the “CD28 scFv signal” value is 2.15.

B34: Phage-349 (peptide)
peptide: LDWCPRHLWALCFN
For the molecule B34, in assay [1], the “CD28 scFv signal in presence of CD28” value stood at 0.24. Also, the “CD28 scFv signal” value in assay [2] worked out at 1.78.

B35: Phage-328 (peptide)
peptide: MDWCPRALWDHCFN
With B35, the “CD28 scFv signal in presence of CD28” value in assay [1] came to 0.293. The “CD28 scFv signal” value in assay [2] is 2.15.

B36: Phage-324 (peptide)
peptide: MDWCPRHLWYECFS
As to B36, the “CD28 scFv signal in presence of CD28” value in assay [1] is 0.163. Also, the “CD28 scFv signal” value in assay [2] came to 2.17.

B37: Phage-333 (peptide)
peptide: MDWCPTDLWHECFA
On to B37, for which the “CD28 scFv signal in presence of CD28” value in assay [1] is 0.154. For the same molecule, in assay [2], the “CD28 scFv signal” value is 2.07.

B38: Phage-352 (peptide)
peptide: MDWCPIHLWYECFN
Consider B38, for which, in assay [1], the “CD28 scFv signal in presence of CD28” value stood at 0.203. Besides, in assay [2], the “CD28 scFv signal” value is 1.73.

B39: Phage-390 (peptide)
peptide: IDWCPMHMWDFCYN
As to B39, the “CD28 scFv signal in presence of CD28” value in assay [1] worked out at 0.232.

B40: Phage-338 (peptide)
peptide: MDWCPRFLWNECFY
Take B40: in assay [1], the “CD28 scFv signal in presence of CD28” value was 0.287. Moreover, the “CD28 scFv signal” value in assay [2] stood at 2.

B41: Phage-416 (peptide)
peptide: MDWCPSNMWNECFF
With B41, the “CD28 scFv signal” value in assay [2] came out at 0.983.

B42: Phage-357 (peptide)
peptide: MDWCPRLLWHECFN
As to B42, the “CD28 scFv signal in presence of CD28” value in assay [1] came out at 0.109. Moreover, the “CD28 scFv signal” value in assay [2] turned out to be 1.6.

B43: Phage-329 (peptide)
peptide: MDWCPRALWNVCFA
For the molecule B43, the “CD28 scFv signal in presence of CD28” value in assay [1] worked out at 0.249. Also, the “CD28 scFv signal” value in assay [2] was 2.14.

B44: Phage-325 (peptide)
peptide: MDWCPAYLWDECFA
For B44, the “CD28 scFv signal in presence of CD28” value in assay [1] came out at 0.163. The “CD28 scFv signal” value in assay [2] was determined as 2.17.

B45: Phage-327 (peptide)
peptide: MHWCPRDLWHVCFN
B45: the “CD28 scFv signal in presence of CD28” value in assay [1] is 0.15. For the same molecule, the “CD28 scFv signal” value in assay [2] turned out to be 2.15.

B46: Phage-350 (peptide)
peptide: MDWCPWFLWNECFN
For B46, the “CD28 scFv signal in presence of CD28” value in assay [1] is 0.279. Also, the “CD28 scFv signal” value in assay [2] was 1.77.

B47: Phage-298 clonal phage peptide (peptide)
peptide: MDWCPLYLWAECFN
notes: on phage (pIII fusion)
In the case of B47, the “CD28 scFv signal in presence of CD28” value in assay [3] was 0.193.

B48: Phage-323 (peptide)
peptide: MDWCPTYLWNVCFA
Take B48: in assay [1], the “CD28 scFv signal in presence of CD28” value was determined as 0.132. In assay [2], the “CD28 scFv signal” value is 2.21.

B49: Phage-334 (peptide)
peptide: MDWCPRYLWDECFS
For B49, the “CD28 scFv signal in presence of CD28” value in assay [1] stood at 0.164. Besides, in assay [2], the “CD28 scFv signal” value came out at 2.06.

B50: Phage-278 clonal phage peptide (peptide)
peptide: MDWCPRSIWYLCFN
notes: on phage (pIII fusion)
As to B50, the “CD28 scFv signal in presence of CD28” value in assay [3] was determined as 1.34.
